Experimental data: paper PMC5787837

Key:
[1] = target: HFBII–Protein A fusion protein (Trichoderma reesei | Staphylococcus aureus); assay: QCM-D (quartz crystal microbalanc); conditions: scale: moles of rituximab per mole of immobilized HFBII–Protein A
[2] = target: HFBI–Protein A fusion protein (Trichoderma reesei | Staphylococcus aureus); assay: QCM-D (quartz crystal microbalanc); conditions: scale: moles of rituximab per mole of immobilized HFBI–Protein A
[3] = target: commercial Protein A (Sigma-Aldrich) (Staphylococcus aureus) (UniProt P38507); assay: QCM-D (quartz crystal microbalance with dissipation monitoring)

**Q.** For rituximab (antibody), which stoichiometry N [1] is on record?
**A.** Its stoichiometry N is 1.2.

**Q.** What about the stoichiometry N [2] of the same substance?
**A.** The stoichiometry N was 1.5.

**Q.** And the stoichiometry N [3]?
**A.** The stoichiometry N was 1.2.
